Data taken from patent US20250186541A1, “DLL3 TARGETING PEPTIDES AND CONSTRUCTS THEREOF” (MARIANA ONCOLOGY INC., priority 2023, published 2025).
Numbered stars: 1 amine (or outer) side, 2 acyl side, 3 side chain; on linkers, the order of the positions; unused ones are H or OH. Bridge positions count the residues as written; N and C are the ends. Square brackets hold non-standard residues; d marks the D form. * marks the point of attachment. 5,5‑diMe‑P = 5,5-dimethyl-L-proline, CC1(C)CC[C@@H](C(=O)[*:2])N1[*:1]; DOTA = O=C(O)CN1CCN(CC(=O)O)CCN(CC(=O)*)CCN(CC(=O)O)CC1; Phe(4-CF3) = N[C@@H](Cc1ccc(C(F)(F)F)cc1)C(=O)O; Trp(7-aza) = N[C@@H](Cc1c[nH]c2ncccc12)C(=O)O; Pro(4,4-F2) = O=C(O)[C@@H]1CC(F)(F)CN1; 1Nal = N[C@@H](Cc1cccc2ccccc12)C(=O)O; 2Nal = N[C@@H](Cc1ccc2ccccc2c1)C(=O)O; cisHyp = O=C(O)[C@@H]1C[C@H](O)CN1; hPhe = N[C@@H](CCc1ccccc1)C(=O)O; αMeP = C[C@@]1(C(=O)O)CCCN1; NMeA = CN[C@@H](C)C(=O)O; dNMeA = CN[C@H](C)C(=O)O; Aze = O=C(O)[C@@H]1CCN1; Ahx = NCCCCCC(=O)O

T1: Biotinylated human DLL3 (human, UniProt Q9NYJ7 27-492, biotinylated (site not stated))
T1 construct: also called Delta-like ligand 3; Delta Like Canonical Notch Ligand 3
T1 sequence (looked up): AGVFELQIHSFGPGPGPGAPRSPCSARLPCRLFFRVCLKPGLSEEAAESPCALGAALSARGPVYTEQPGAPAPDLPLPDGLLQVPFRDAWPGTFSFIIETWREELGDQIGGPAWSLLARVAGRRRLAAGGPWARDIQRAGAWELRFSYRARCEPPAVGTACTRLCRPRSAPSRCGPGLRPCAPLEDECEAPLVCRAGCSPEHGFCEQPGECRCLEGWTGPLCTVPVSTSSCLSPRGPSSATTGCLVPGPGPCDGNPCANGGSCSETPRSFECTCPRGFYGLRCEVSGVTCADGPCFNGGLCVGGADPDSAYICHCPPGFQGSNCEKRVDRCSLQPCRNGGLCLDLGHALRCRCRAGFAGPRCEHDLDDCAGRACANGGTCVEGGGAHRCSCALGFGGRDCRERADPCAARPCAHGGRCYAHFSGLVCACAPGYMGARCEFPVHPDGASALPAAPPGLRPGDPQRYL

B1: Cpd #46 (peptide)
peptide: Ac-MSDCWLQWNC[5,5‑diMe‑P]FD[dK](DOTA)-NH2
modifications: disulfide 4-10
SMILES: CSCC[C@H](NC(C)=O)C(=O)N[C@@H](CO)C(=O)N[C@@H](CC(=O)O)C(=O)N[C@H]1CSSC[C@@H](C(=O)N2[C@H](C(=O)N[C@@H](Cc3ccccc3)C(=O)N[C@@H](CC(=O)O)C(=O)N[C@H](CCCCNC(=O)CN3CCN(CC(=O)O)CCN(CC(=O)O)CCN(CC(=O)O)CC3)C(N)=O)CCC2(C)C)NC(=O)[C@H](CC(N)=O)NC(=O)[C@H](Cc2c[nH]c3ccccc23)NC(=O)[C@H](CCC(N)=O)NC(=O)[C@H](CC(C)C)NC(=O)[C@H](Cc2c[nH]c3ccccc23)NC1=O
B2: Cpd #61 (peptide)
peptide: Ac-MSDCWLQ[1Nal]NCPFD[dK](DOTA)-NH2
modifications: disulfide 4-10
SMILES: CSCC[C@H](NC(C)=O)C(=O)N[C@@H](CO)C(=O)N[C@@H](CC(=O)O)C(=O)N[C@H]1CSSC[C@@H](C(=O)N2CCC[C@H]2C(=O)N[C@@H](Cc2ccccc2)C(=O)N[C@@H](CC(=O)O)C(=O)N[C@H](CCCCNC(=O)CN2CCN(CC(=O)O)CCN(CC(=O)O)CCN(CC(=O)O)CC2)C(N)=O)NC(=O)[C@H](CC(N)=O)NC(=O)[C@H](Cc2cccc3ccccc23)NC(=O)[C@H](CCC(N)=O)NC(=O)[C@H](CC(C)C)NC(=O)[C@H](Cc2c[nH]c3ccccc23)NC1=O
B3: Cpd #29 (peptide)
peptide: Ac-MSDCWLQWNCPFA-NH2
modifications: disulfide 4-10
SMILES: CSCC[C@H](NC(C)=O)C(=O)N[C@@H](CO)C(=O)N[C@@H](CC(=O)O)C(=O)N[C@H]1CSSC[C@@H](C(=O)N2CCC[C@H]2C(=O)N[C@@H](Cc2ccccc2)C(=O)N[C@@H](C)C(N)=O)NC(=O)[C@H](CC(N)=O)NC(=O)[C@H](Cc2c[nH]c3ccccc23)NC(=O)[C@H](CCC(N)=O)NC(=O)[C@H](CC(C)C)NC(=O)[C@H](Cc2c[nH]c3ccccc23)NC1=O
B4: Cpd #41 (peptide)
peptide: {DOTA}-[Ahx]SDCWLQWNCP[hPhe]D-NH2
modifications: disulfide 4-10
SMILES: CC(C)C[C@@H]1NC(=O)[C@H](Cc2c[nH]c3ccccc23)NC(=O)[C@@H](NC(=O)[C@H](CC(=O)O)NC(=O)[C@H](CO)NC(=O)CCCCCNC(=O)CN2CCN(CC(=O)O)CCN(CC(=O)O)CCN(CC(=O)O)CC2)CSSC[C@@H](C(=O)N2CCC[C@H]2C(=O)N[C@@H](CCc2ccccc2)C(=O)N[C@@H](CC(=O)O)C(N)=O)NC(=O)[C@H](CC(N)=O)NC(=O)[C@H](Cc2c[nH]c3ccccc23)NC(=O)[C@H](CCC(N)=O)NC1=O
B5: Cpd #50 (peptide)
peptide: Ac-MSDCWLQWNC[dNMeA]FD[dK](DOTA)-NH2
modifications: disulfide 4-10
SMILES: CSCC[C@H](NC(C)=O)C(=O)N[C@@H](CO)C(=O)N[C@@H](CC(=O)O)C(=O)N[C@H]1CSSC[C@@H](C(=O)N(C)[C@H](C)C(=O)N[C@@H](Cc2ccccc2)C(=O)N[C@@H](CC(=O)O)C(=O)N[C@H](CCCCNC(=O)CN2CCN(CC(=O)O)CCN(CC(=O)O)CCN(CC(=O)O)CC2)C(N)=O)NC(=O)[C@H](CC(N)=O)NC(=O)[C@H](Cc2c[nH]c3ccccc23)NC(=O)[C@H](CCC(N)=O)NC(=O)[C@H](CC(C)C)NC(=O)[C@H](Cc2c[nH]c3ccccc23)NC1=O
B6: Cpd #63 (peptide)
peptide: Ac-MSDCWLQ[hPhe]NCPFD[dK](DOTA)-NH2
modifications: disulfide 4-10
SMILES: CSCC[C@H](NC(C)=O)C(=O)N[C@@H](CO)C(=O)N[C@@H](CC(=O)O)C(=O)N[C@H]1CSSC[C@@H](C(=O)N2CCC[C@H]2C(=O)N[C@@H](Cc2ccccc2)C(=O)N[C@@H](CC(=O)O)C(=O)N[C@H](CCCCNC(=O)CN2CCN(CC(=O)O)CCN(CC(=O)O)CCN(CC(=O)O)CC2)C(N)=O)NC(=O)[C@H](CC(N)=O)NC(=O)[C@H](CCc2ccccc2)NC(=O)[C@H](CCC(N)=O)NC(=O)[C@H](CC(C)C)NC(=O)[C@H](Cc2c[nH]c3ccccc23)NC1=O
B7: Cpd #49 (peptide)
peptide: Ac-MSDCWLQWNC[NMeA]FD[dK](DOTA)-NH2
modifications: disulfide 4-10
SMILES: CSCC[C@H](NC(C)=O)C(=O)N[C@@H](CO)C(=O)N[C@@H](CC(=O)O)C(=O)N[C@H]1CSSC[C@@H](C(=O)N(C)[C@@H](C)C(=O)N[C@@H](Cc2ccccc2)C(=O)N[C@@H](CC(=O)O)C(=O)N[C@H](CCCCNC(=O)CN2CCN(CC(=O)O)CCN(CC(=O)O)CCN(CC(=O)O)CC2)C(N)=O)NC(=O)[C@H](CC(N)=O)NC(=O)[C@H](Cc2c[nH]c3ccccc23)NC(=O)[C@H](CCC(N)=O)NC(=O)[C@H](CC(C)C)NC(=O)[C@H](Cc2c[nH]c3ccccc23)NC1=O
B8: Cpd #62 (peptide)
peptide: Ac-MSDCWLQ[2Nal]NCPFD[dK](DOTA)-NH2
modifications: disulfide 4-10
SMILES: CSCC[C@H](NC(C)=O)C(=O)N[C@@H](CO)C(=O)N[C@@H](CC(=O)O)C(=O)N[C@H]1CSSC[C@@H](C(=O)N2CCC[C@H]2C(=O)N[C@@H](Cc2ccccc2)C(=O)N[C@@H](CC(=O)O)C(=O)N[C@H](CCCCNC(=O)CN2CCN(CC(=O)O)CCN(CC(=O)O)CCN(CC(=O)O)CC2)C(N)=O)NC(=O)[C@H](CC(N)=O)NC(=O)[C@H](Cc2ccc3ccccc3c2)NC(=O)[C@H](CCC(N)=O)NC(=O)[C@H](CC(C)C)NC(=O)[C@H](Cc2c[nH]c3ccccc23)NC1=O

Target: T1, Biotinylated human DLL3
Experiment: SPR, biotin-hDLL3 on SA chip

| Kd [nM] | binding result | Binder |
| --- | --- | --- |
| 25.5 |  | Ac-SDCWLQWNCPFD[dK](DOTA)-NH2 (disulfide 3-9) [Cpd #31] |
| 12 |  | B1 |
| 64 |  | Ac-MSDCWLQWNC[Aze]FD[dK](DOTA)-NH2 (disulfide 4-10) [Cpd #48] |
| 2.72 |  | B2 |
| 2.6 |  | Ac-MSDCWLQWNC[αMeP]FD[dK](DOTA)-NH2 (disulfide 4-10) [Cpd #51] |
|  | no binding | B3 |
| 32.4 |  | Ac-MSDCWLQ[Phe(4-CF3)]NCPFD[dK](DOTA)-NH2 (disulfide 4-10) [Cpd #65] |
| 20.1 |  | Ac-MSDCWLQ[Trp(7-aza)]NCPFD[dK](DOTA)-NH2 (disulfide 4-10) [Cpd #64] |
| 83 |  | B4 |
| 4.94 |  | B5 |
| 17 |  | Ac-MSDCWLQWNC[Pro(4,4-F2)]FD[dK](DOTA)-NH2 (disulfide 4-10) [Cpd #52] |
| 31.3 |  | B6 |
| 40.6 |  | Ac-MSDCWLQWNC[cisHyp]FD[dK](DOTA)-NH2 (disulfide 4-10) [Cpd #45] |
| 19.6 |  | B7 |
| 8.6 |  | Ac-MSDCWLQWNCPFD[dK](DOTA)-NH2 (disulfide 4-10) [Cpd #30] |
| 32 |  | Ac-KSDCWLQWNCPFD[dK](DOTA)-NH2 (disulfide 4-10) [Cpd #83] |
| 29 |  | Ac-[dK]SDCWLQWNCPFD[dK](DOTA)-NH2 (disulfide 4-10) [Cpd #84] |
| 2.5 |  | B8 |
